From the DeepSol protein solubility set

Test: soluble on expression in E. coli; label from the status in PepcDB or PDB records

Sequence | soluble on expression in E. coli
MSLVTIKDIARNLGISYSTVSRCLNNNPNVSEKTKKKVVEEANRLGFHFNVNARNLAKKETNRIGVIFSNNFNHQDTRKFFSDIMDSSINSIETNKYDFIIQPNNNISGDSNVYKMVNGQMVDGLVIVSQSIKKEEYDFLKDNNFPHVFIYFKPSFIGEVDNFFWDDNVYGGYIATKHLIDHGHKDIITVTSDDKSSKMHEDRTKGYLNAMEEANLKTEVIKSKMDFESQVEFLEKYIDKIKKASAIFVQQDVPAISIIQELKTTYGINVPEDISIIGYNNIELISYFRSHLSTIDDPREQVIKNGVDSLVNIINKKSTEHIPRKLYPRLIIRNSVKRIKEGHHHHHH | soluble
MSLWTIMIGSKNRAKVHALQEVVIRDKIIVRSEAVPSDVASQPFSDQETIQGAINRANHCLSFDGVDYGVGLEGGVVRSEYGLFLCNWGALVSQTGDQWVAGGARVPLPQEVAHELEGGKELGDIMESLTKNPDVRMTDGAIGYLTDGEISRKAMFQHVVHLLIGQARRDGHLLRTVTHEGHHHHHH | soluble
MSLYLEKYYYEKNIQEEFFKFLYSMTGKKEEIVVICIGDPVFEGNILAPLVGTLLHERNIPNVYGTLKEPVYEINIKEIYNKILKKYDNPYIILVASSFPVDFHDEREVIVLKNDPYEIQTASGSLKLGNASFIVVFDLEDSYCKVNFIEKLGIRKIYKYSEAIFKTLYYILHNKNYVKEGHHHHHH | soluble
MSLYPLVLDLAATGVPVAVTCRELGFTKQGFYKWCAHPVSARDWDEAHLINAAYDVHTDDPEFGHRFIADELHAAGLQTSERRVWRLCSQQQLFSHTIKRARKHGKKPGPPVCDDLVERDFTAKAINELWLTDVTEHHTSEGKLYMCAVKDVFSNRIVGYAIDSRMKSRLAVAAIDDAVARRGGSGMIAGCVVHSDRGSQFRSRKFQQALRHYGLVGSMGRVGAAGDNAAMESFFAVLQKNVLDRGRWDTRARLRTAIVHWVERTYHRKRRQRRLGKLTPVEYELVHQKAVALAAEGHHHHHH | not soluble
MSLYQEFFTFIPVDIEELDKAFGGGLIRGATISIMYDAFSLGWALGFEMVKNLIRRNSFGVIHNYNLPTIKLISRASFVGLNIQELAKRKEIMILDVFGSKYDVPPYADYVLQVPNPTPETLNPKIESVYENKIFQVAGDRRIVKLVYTLDGVATMFGEEVAIKLLNGELAWLAKMYGKRNVMTILLLNVDMVSKKFIAWTSGVSDIVITFQSLTEEREGELVERMTVIKSLNPEFEPTSYEFRVTATGTGSHALDFRKIENEGHHHHHH | not soluble
MSMSDINKNSELIFIPAPGIGHLASALEFAKLLTNHDKNLYITVFCIKFPGMPFADSYIKSVLASQPQIQLIDLPEVEPPPQELLKSPEFYILTFLESLIPHVKATIKTILSNKVVGLVLDFFCVSMIDVGNEFGIPSYLFLTSNVGFLSLMLSLKNRQIEEVFDDSDRDHQLLNIPGISNQVPSNVLPDACFNKDGGYIAYYKLAERFRDTKGIIVNTFSDLEQSSIDALYDHDEKIPPIYAVGPLLDLKGQPNPKLDQAQHDLILKWLDEQPDKSVVFLCFGSMGVSFGPSQIREIALGLKHSGVRFLWSNSAEKKVFPEGFLEWMELEGKGMICGWAPQVEVLAHKAIGGFVSHCGWNSILESMWFGVPILTWPIYAEQQLNAFRLVKEWGVGLGLRVDYRKGSDVVAAEEIEKGLKDLMDKDSIVHKKVQEMKEMSRNAVVDGGSSLISVGKLIDDITGSN | soluble
MSMSSTVIKFRAGVCEYNEDSRLCTPIPVQGEIEIKPNEEEELGFWDFEWRPTEKPVGRELDPISLILIPGETMWVPIKSSKSGRIFALVFSSNERYFFWLQEKNSGNLPLNELSAKDKEIYNKMIGVLNNSSESDEEESNDEKQKAQDVDVSMQD | soluble
MSNDHLETTGSSDPNTNLLKYLPIVLNPDRTITRPIQIPSTAASPDPTSSSPVLTKDLALNPLHNTFVRLFLPRHALYNSAKLPLVVYFHGGGFILFSAASTIFHDFCCEMAVHAGVVIASVDYRLAPEHRLPAAYDDAMEALQWIKDSRDEWLTNFADFSNCFIMGESAGGNIAYHAGLRAAAVADELLPLKIKGLVLDEPGFGGSKRTGSELRLANDSRLPTFVLDLIWELSLPMGADRDHEYCNPTAESEPLYSFDKIRSLGWRVMVVGCHGDPMIDRQMELAERLEKKGVDVVAQFDVGGYHAVKLEDPEKAKQFFVILKKFVVDSCTTKLKLN | soluble
MSNLNPCMTCGACCAFFRVSFYWAEADDAGGTIPARLTEQISPFHRCMSGTNQKNPRCIALAGTPGKNACCTIYKNRSSTCREFAMSGENGVVNEACNRARAKYGLTPL | not soluble
MSNNGSSPLVLWYNQLGMKDVDRVGGKNASLGEMITNLSGMGVSVPNGFATTADAFNQFLDQSGVNQRIYELLDKTDIDDVTQLAKAGAQIRQWIIDTPFQPELENAIREAYAQLSADDENASFAVRSSATAEDMPDASFAGQQETFLNVQGFDAVLVAVKHVFASLFNDRAISYRVHQGYDHRGVALSAGVQRMVRSDLASSGVMFSIDTESGFDQVVFITSAWGLGEMVVQGAVNPDEFYVHKPTLAANRPAIVRRTMGSKKIRMVYAPTQEHGKQVKIEDVPQEQRDIFSLTNEEVQELAKQAVQIEKHYGHPMDIEWAKDGHTGKLFIVQARPETVRSRGQVMERYTLHSQGKIIAEGRAIGHRIGAGPVKVIHDISEMNRIEPGDVLVTDMTDPDWEPIMKKASAIVTNRGGRTCHAAIIARELGIPAVVGCGDATERMKDGENVTVSCAEGDTGYVYAELLEFSVKSSSVETMPDLPLKVMMNVGNPDRAFDFACLPNEGVGLARLEFIINRMIGVHPRALLEFDDQEPQLQNEIREMMKGFDSPREFYVGRLTEGIATLGAAFYPKRVIVRLSDFKSNEYANLVGGERYEPDEENPMLGFRGAGRYVSDSFRDCFALECEAVKRVRNDMGLTNVEIMIPFVRTVDQAKAVVEELARQGLKRGENGLKIIMMCEIPSNALLAEQFLEYFDGFSIGSNDMTQLALGLDRDSGVVSELFDERNDAVKALLSMAIRAAKKQGKYVGICGQGPSDHEDFAAWLMEEGIDSLSLNPDTVVQTWLSLAELKK | not soluble
MSNPILTSTLIILRGNSSSGKTTIAKQLQEHFGQGTLLVSQDVVRRDMLRVHDTMGNLSHDLLFEITKYGKGKCEFVILEGILNSHRYGEMLKELIRYFDENAFAYYFDLSLEETIRRHNTRDKRHEFGEDSLQKWYNPHDTIKVATETIFTDNFTQKDIFDAILNDVAIEKQALEHHHHHH | soluble
MSNQDYTGVRVEGARKLRSTLKKAGIDVRDDMKQAHKDAASIVSRRAAQITPVGPGSRRHKPGQLKASVRPAGTQTAAIVRAGKKRVPYAGPIQWGWHKRKIKPTFFLTRAASDTEPAWLKGYEKKFNQILDSIEGK | not soluble
MSNVQEWQQLANKELSRREKTVDSLVHQTAEGIAIKPLYTEADLDNLEVTGTLPGLPPYVRGPRATMYTAQPWTIRQYAGFSTAKESNAFYRRNLAAGQKGLSVAFDLATHRGYDSDNPRVAGDVGKAGVAIDTVEDMKVLFDQIPLDKMSVSMTMNGAVLPVLAFYIVAAEEQGVTPDKLTGTIQNDILKEYLCRNTYIYPPKPSMRIIADIIAWCSGNMPRFNTISISGYHMGEAGANCVQQVAFTLADGIEYIKAAISAGLKIDDFAPRLSFFFGIGMDLFMNVAMLRAARYLWSEAVSGFGAQDPKSLALRTHCQTSGWSLTEQDPYNNVIRTTIEALAATLGGTQSLHTNAFDEALGLPTDFSARIARNTQIIIQEESELCRTVDPLAGSYYIESLTDQIVKQARAIIQQIDEAGGMAKAIEAGLPKRMIEEASAREQSLIDQGKRVIVGVNKYKLDHEDETDVLEIDNVMVRNEQIASLERIRATRDDAAVTAALNALTHAAQHNENLLAAAVNAARVRATLGEISDALEVAFDRYLVPSQCVTGVIAQSYHQSEKSASEFDAIVAQTEQFLADNGRRPRILIAKMGQDGHDRGAKVIASAYSDLGFDVDLSPMFSTPEEIARLAVENDVHVVGASSLAAGHKTLIPELVEALKKWGREDICVVAGGVIPPQDYAFLQERGVAAIYGPGTPMLDSVRDVLNLISQHHD | soluble
MSNWGDYQLGGLAPPTEPWLAIRPFLQLPHDFKIVFLSIERGLTRKNDFKTVRQLQKWAYCKPRFCGRGQSPELVIPPVGHPPSSSGLIVKIKQMIRSCVRLASQSTNKLLIFSSLSRNSQLYISMSSSDLGRGFKQGRGTGDSGQSSLYNNERRWKDDDTFNALGATDELSSFLGVCGASAQNDGSMSDVVETLTRLQCCLQDVGAHLATPPKNSSERKQKKTAFDIAMVEWINAEIDRYGDALPAIRQFILSGGGMTSAQLQYSRAICRRAERSIVPLMRDEDVDPMALKFLNRMSDLLFVLGRTACMRNKNEELTYLRPDSFTNLKWDRKSLHEKK | not soluble
MSPDKQAAALPRRERNRQAAAASPENSRGKGRRGQRGKNRGCVLTAIHLNVTDLGLGYETKEELIFRYCSGSCEAAETMYDKILKNLSRSRRLTSDKVGQACCRPVAFDDDLSFLDDSLVYHILRKHSAKRCGCI | soluble
MSPHYLRQVKESSGSRLIQQRLLHQQQPLHPEWAALAKKQLKGKNPEDLIWHTPEGISIKPLYSKRDTMDLPEELPGVKPFTRGPYPTMYTFRPWTIRQYAGFSTVEESNKFYKDNIKAGQQGLSVAFDLATHRGYDSDNPRVRGDVGMAGVAIDTVEDTKILFDGIPLEKMSVSMTMNGAVIPVLANFIVTGEEQGVPKEKLTGTIQNDILKEFMVRNTYIFPPEPSMKIIADIFEYTAKHMPKFNSISISGYHMQEAGADAILELAYTLADGLEYSRTGLQAGLTIDEFAPRLSFFWGIGMNFYMEIAKMRAGRRLWAHLIEKMFQPKNSKSLLLRAHCQTSGWSLTEQDPYNNIVRTAIEAMAAVFGGTQSLHTNSFDEALGLPTVKSARIARNTQIIIQEESGIPKVADPWGGSYMMECLTNDVYDAALKLINEIEEMGGMAKAVAEGIPKLRIEECAARRQARIDSGSEVIVGVNKYQLEKEDTVEVLAIDNTSVRNRQIEKLKKIKSSRDQALAERCLAALTECAASGDGNILALAVDASRARCTVGEITDALKKVFGEHKANDRMVSGAYRQEFGESKEITSAIKRVHKFMEREGRRPRLLVAKMGQDGHDRGAKVIATGFADLGFDVDIGPLFQTPREVAQQAVDADVHAVGVSTLAAGHKTLVPELIKELNSLGRPDILVMCGGVIPPQDYEFLFEVGVSNVFGPGTRIPKAAVQVLDDIEKCLEKKQQSVAENLYFQSHHHHHHDYKDDDDK | soluble
MSPLPIIEVMPKLLSGITNSPQLILKAAPGAGKSTYFPLQLLQAGGFHGKIIMLEPRRLAARNIARYLAQQLGEEVGQRVGYRVRGENRVSRATQLEIVTEGIMTRMLQNDPELDGVDVLIFDEFHERSIHADTALALALEVQSALREDLKIVVMSATLDQQALQNLLPQASYVESQGRGFPIEIRYQPLRSDEPLVTAMQRQIRHLLQHETGSLLAFLPGAASINQLTEQLSDLASEVEICPLYGQMEFAAQQRAIAPTAAGRRKVVLATNIAETSLTIEGIRIVLDSGLERSARFDLKTGITRLEQVRIAQSSAEQRAGRAGRLEPGICVRLYSEAQLKQQPWVPEPEMLHTDLAPLALELAQWGAQPSDLAWLNLPPSSAFAQAQQLLQRLGLLDARTQITAAGKEAHLLGVEPRIAAMLLSADRLGESALQSALALTVLLEEPERQVIDVQHSLHRWQQGRHPKQKLLIQRAQSLAHKLDTAFSLSSVDSAWLPLVACLAFPDRIAQQRGQQTGQFLLANGHGAWLAVEDRLSAADYLVALDLMRGQTQASQIFSALELDIHALERVLPALISRVEQVDWDEKAGRLSAEAQWRIDQLVLRREKLPEPDKQKMTQALLSYVRRKGLTVLQWSEDASEWLARARCAAEWLPEEAWPALDDETLLARLELWLEPYLAGVTSVKGLQSVSVLQALKHYLGWELSQQLDEWLPTHHLLPTGNHKKIRYQLGMEPTLSVRMQEVFGEQSSPRVAKGTRAVVMELLSPAQRPLQVTRDLASFWAGAYKEVQKEMKGRYPKHVWPDDPANHVATSKTKRQLNA | soluble
MSPLTTFLTDAQQQTLHQLIVSARDSGANEEMVKESMDEYLAQILSPDRLQELKTAHDEFEAQRRGKRAAISASDKPEPKKVFDIIDQFTSDYQKFYEESSAVRNRNNIN | soluble
